Reference: patent US20230348605A1 (published 2023)

Legend:
[1] = biological target: T1, EIIIB domain of fibronectin; test: BLI
T1 construct: domain: EIIIB domain; also called recombinantly expressed EIIIB domain of FN

[2] = biological target: T2, FN-EIIIB in human patient tissue (PDAC stroma; metastases on a tissue array) (human, UniProt P02751 32-2477); test: immunohistochemistry on a multi-organ metastatic tissue array
T2 construct: Endogenous protein in tissue sections; also called EIIIB expressed in human PDAC stroma; stromal FN-EIIIB
Text: To investigate the expression of EIIIB in metastasis samples from multiple patients, we stained a multi-organ tissue array of samples from various metastatic sites derived from 104 patients with NJB2-biotin. […] In parallel, similar results were obtained with a monoclonal anti-EIIIB antibody (AM3, data not shown). These metastases to multiple organs (21 distinct sites) were derived from 17 different primary sites, including rectum, pancreas, lung, ovary, stomach and thyroid among others (Table 4). Among the EIIIB-positive biopsies, ~32% were metastases to the lymph nodes at the metastatic sites (Table 4). This wide expression of EIIIB at metastatic sites in multiple organs and derived from multiple types of primary tumors further broadens the potential applications of NJB2-based imaging and therapeutic applications.

[3] = biological target: T3, fibronectin (FN) containing the EIIIB domain, in the ECM of aortic endothelial cells from control/wild type … (mouse, UniProt P11276 33-2477); test: biotinylated NJB2 detected with streptavidin-Alexa488 on endothelial cells and their ECM
T3 construct: whole, on cells; Protein stood in the cell-derived extracellular matrix, not on the cell membrane; also called EIIIB domain of FN
Text: The NJB2 was site-specifically labelled with biotin via sortagging and detected with streptavidin-Alexa488. […] The αEIIIB control was cells stained with mouse monoclonal IgG specific to an epitope in the EIIIB domain of FN. The negative control, C, was unstained cells.

T1 sequence (P02751 1271-1359): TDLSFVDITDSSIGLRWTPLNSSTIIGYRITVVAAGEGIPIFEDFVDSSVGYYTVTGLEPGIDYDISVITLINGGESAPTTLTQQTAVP
T2 sequence (P02751 32-2477): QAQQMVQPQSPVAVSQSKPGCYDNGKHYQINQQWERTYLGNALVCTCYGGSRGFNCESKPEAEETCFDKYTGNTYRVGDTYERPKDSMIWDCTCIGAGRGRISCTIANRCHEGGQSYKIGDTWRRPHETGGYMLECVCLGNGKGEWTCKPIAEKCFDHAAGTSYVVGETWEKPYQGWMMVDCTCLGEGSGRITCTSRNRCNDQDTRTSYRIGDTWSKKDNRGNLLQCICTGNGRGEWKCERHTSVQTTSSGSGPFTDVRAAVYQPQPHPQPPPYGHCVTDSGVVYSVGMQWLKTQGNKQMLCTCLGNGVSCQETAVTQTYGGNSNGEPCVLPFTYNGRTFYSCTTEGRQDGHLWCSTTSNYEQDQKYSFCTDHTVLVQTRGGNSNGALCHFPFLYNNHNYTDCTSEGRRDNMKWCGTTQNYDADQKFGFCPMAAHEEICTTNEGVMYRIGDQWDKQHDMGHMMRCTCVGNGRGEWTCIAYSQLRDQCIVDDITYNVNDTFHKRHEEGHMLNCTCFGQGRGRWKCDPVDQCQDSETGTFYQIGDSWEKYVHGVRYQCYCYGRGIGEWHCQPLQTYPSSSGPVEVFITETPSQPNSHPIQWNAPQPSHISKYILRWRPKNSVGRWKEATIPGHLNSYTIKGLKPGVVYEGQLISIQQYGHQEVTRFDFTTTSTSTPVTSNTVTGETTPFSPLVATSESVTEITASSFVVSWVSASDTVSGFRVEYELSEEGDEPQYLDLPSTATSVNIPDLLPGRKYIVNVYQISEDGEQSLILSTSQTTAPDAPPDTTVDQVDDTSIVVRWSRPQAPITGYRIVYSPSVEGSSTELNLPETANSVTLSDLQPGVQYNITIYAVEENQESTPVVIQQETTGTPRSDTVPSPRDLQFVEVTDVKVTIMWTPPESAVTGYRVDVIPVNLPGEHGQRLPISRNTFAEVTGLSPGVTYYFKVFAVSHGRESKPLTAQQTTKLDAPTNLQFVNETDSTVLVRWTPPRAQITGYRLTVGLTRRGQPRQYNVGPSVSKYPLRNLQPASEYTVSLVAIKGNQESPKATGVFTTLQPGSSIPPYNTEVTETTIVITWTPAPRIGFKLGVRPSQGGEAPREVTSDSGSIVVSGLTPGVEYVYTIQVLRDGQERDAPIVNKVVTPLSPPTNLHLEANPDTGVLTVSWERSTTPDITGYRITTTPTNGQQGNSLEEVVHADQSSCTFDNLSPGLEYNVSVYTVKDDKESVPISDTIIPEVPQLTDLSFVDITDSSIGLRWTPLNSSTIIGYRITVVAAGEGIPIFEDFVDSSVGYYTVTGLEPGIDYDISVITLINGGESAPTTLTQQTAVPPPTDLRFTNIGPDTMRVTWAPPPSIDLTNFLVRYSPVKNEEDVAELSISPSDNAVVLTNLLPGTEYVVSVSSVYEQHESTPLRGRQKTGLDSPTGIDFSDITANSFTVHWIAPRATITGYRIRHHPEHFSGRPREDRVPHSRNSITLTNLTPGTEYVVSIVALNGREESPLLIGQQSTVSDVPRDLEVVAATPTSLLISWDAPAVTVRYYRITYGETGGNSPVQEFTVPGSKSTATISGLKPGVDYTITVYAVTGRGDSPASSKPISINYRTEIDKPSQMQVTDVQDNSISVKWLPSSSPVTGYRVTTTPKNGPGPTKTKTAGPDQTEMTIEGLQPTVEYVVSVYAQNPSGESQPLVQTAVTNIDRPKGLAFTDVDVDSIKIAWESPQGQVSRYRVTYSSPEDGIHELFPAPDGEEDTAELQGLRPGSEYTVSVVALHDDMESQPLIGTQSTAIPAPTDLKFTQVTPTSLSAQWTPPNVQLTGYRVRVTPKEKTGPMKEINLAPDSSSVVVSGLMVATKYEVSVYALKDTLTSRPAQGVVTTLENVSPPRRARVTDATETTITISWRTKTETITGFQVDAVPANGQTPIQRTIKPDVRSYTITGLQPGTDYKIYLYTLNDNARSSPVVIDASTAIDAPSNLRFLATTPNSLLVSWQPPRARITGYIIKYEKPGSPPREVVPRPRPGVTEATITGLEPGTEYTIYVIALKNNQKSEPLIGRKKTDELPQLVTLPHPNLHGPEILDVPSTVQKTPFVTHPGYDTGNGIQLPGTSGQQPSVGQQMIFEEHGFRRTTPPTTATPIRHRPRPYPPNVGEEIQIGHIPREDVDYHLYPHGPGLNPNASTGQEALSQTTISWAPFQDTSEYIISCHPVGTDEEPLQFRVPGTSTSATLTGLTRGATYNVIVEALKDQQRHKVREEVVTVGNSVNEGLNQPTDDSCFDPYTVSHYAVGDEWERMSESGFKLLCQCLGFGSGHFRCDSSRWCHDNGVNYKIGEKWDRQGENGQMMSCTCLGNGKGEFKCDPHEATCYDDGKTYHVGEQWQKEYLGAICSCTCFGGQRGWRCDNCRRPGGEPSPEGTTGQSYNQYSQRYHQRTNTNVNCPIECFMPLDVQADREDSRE
T3 sequence (P11276 33-2477): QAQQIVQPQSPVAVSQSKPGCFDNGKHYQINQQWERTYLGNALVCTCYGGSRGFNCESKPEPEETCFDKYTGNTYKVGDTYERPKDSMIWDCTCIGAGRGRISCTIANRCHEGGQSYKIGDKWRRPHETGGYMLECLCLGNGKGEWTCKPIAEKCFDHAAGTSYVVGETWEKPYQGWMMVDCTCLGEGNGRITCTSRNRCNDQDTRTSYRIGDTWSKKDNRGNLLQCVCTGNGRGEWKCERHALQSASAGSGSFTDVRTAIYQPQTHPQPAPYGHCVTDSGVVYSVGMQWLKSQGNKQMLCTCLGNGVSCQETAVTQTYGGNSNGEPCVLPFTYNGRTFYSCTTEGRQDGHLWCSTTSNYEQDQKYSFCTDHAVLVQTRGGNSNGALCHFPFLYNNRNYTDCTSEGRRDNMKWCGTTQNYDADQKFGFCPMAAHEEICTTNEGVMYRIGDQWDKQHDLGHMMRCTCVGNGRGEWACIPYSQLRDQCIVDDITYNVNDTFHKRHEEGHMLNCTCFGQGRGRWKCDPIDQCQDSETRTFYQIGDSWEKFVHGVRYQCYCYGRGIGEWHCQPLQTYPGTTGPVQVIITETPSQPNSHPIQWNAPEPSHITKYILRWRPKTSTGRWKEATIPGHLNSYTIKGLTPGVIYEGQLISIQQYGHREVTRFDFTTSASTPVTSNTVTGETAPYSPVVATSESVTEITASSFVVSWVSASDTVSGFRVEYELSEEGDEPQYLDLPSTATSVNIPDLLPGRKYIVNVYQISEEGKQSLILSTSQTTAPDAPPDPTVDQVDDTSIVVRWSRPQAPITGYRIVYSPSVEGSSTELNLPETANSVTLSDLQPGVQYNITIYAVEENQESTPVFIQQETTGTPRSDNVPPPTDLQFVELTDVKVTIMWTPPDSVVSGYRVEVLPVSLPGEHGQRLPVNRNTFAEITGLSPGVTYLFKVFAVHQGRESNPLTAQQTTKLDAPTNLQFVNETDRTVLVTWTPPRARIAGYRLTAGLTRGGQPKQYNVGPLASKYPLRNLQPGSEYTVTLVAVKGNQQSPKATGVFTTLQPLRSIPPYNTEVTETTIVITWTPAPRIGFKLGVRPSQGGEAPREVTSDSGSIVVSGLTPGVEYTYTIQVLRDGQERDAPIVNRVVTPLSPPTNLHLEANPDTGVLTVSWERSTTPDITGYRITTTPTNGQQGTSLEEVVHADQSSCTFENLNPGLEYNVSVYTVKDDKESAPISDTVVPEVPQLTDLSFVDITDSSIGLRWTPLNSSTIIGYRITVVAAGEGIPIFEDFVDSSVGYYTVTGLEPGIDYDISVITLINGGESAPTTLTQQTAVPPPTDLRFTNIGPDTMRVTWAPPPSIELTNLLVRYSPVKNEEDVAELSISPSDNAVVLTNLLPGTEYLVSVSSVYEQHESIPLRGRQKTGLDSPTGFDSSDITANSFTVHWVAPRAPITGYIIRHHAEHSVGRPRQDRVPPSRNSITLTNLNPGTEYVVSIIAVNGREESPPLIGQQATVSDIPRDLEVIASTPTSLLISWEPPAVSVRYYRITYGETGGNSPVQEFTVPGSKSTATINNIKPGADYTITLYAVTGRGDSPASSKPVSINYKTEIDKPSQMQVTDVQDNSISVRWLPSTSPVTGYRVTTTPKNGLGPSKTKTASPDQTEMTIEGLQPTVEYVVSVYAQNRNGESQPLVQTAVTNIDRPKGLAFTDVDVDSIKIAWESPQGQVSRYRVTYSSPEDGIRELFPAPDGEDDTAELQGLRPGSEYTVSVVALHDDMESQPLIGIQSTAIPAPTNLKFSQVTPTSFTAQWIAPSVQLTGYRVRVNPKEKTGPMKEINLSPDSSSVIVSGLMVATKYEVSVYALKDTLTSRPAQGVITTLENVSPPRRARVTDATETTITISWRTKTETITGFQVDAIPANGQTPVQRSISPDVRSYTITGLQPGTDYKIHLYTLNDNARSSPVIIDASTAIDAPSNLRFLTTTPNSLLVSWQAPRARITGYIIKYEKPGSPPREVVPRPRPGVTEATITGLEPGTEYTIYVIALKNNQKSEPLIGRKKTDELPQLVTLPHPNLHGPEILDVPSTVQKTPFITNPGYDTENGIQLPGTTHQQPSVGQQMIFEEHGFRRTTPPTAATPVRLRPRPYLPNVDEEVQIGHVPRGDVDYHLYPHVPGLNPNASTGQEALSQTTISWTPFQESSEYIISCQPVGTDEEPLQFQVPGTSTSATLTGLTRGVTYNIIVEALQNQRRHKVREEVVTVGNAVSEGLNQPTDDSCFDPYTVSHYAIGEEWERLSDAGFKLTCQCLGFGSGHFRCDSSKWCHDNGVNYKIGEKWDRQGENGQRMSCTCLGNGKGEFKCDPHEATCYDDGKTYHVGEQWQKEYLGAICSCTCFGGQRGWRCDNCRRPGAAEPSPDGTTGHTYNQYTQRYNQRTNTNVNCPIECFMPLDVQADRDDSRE

B1: NJB2 (VHH)
VHH: QVQLVETGGGLVQAGGSLRLSCAASGSTFSHNAGGWYRQAPEKQRELVAGISSDGNINYADSVKDRFTISRDNASNTMYLQMNNLKPEDTAVYVCNIRGSYGNTYYSRWGQGTQVTVSS
modifications: site-specifically labelled via sortagging (LPETG tag) with biotin, Texas Red or 64Cu in the staining and imaging assays
notes: After sortagging the C-terminus differs (label in place of the residues after LPET); also called VHH NJB2; VHH-NJB2
Kd [1]: ~4 nM | binding result [2]: binds | binding result [3]: binds
